Experimental data published in article PMC2677547.

Target: Coxsackievirus and adenovirus receptor (CAR), endogenous on rat spinal cord motor neurons (rat (endogenous in spinal cord motor neurons)) (UniProt Q9R066)
Chain of UniProt Q9R066 (Q9R066 20-365): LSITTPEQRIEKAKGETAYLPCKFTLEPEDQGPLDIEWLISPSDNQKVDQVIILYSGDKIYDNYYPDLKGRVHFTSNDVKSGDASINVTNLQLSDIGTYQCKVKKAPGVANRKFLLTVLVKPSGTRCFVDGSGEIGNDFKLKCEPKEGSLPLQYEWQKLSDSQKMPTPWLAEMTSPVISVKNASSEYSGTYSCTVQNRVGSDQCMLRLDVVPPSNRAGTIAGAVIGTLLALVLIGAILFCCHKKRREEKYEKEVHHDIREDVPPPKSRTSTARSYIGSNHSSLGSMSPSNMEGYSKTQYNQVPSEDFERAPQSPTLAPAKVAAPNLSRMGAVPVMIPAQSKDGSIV

**Q.** How did the CAV-2 virion uptake in MNs after pre-incubation with saturating concentrations of recombinant FK (blocks CAV-2 virion with CAR) turn out when “CAV-2 fibre knob, unlabelled recombinant (FK) (domain or fragment)” was run?
**A.** 76%
